According to article PMC7231451:

Columns and labels:
[1] = molecular target: associated or linker proteins (plasma proteins of the approximately 320 kDa complex); assay: SEC
[2] = molecular target: Complement C3 (purified, native) (UniProt P01024); assay: flow cytometry on coated beads
[3] = molecular target: Complement C3 (purified, native) (UniProt P01024); assay: pull-down

Row | Substance | percent of AAT in the complex [1] | fluorescence intensity of binding (h-AAT vs r-AAT) [2] | Western blot densitometry of bound AAT (C3-coated beads vs control beads) [3]
1 | Alpha-1 antitrypsin (from UniProt P01009 25-418) (natural protein) | 13% |  | 
2 | plasma purified human AAT (natural protein) |  | 1.5 AU | 2.7 AU
